Where two headings read alike, the source gives them in different places.
B1: Enzyme I (EI), full length (residues 1-575), from E. coli (enzyme)
chain: not shown
B2: histidine phosphocarrier protein HPr (natural protein)
chain: not shown

Tests used:
AUC = target: the molecule itself; experiment: AUC
[1] = target: B1; experiment: ITC
[2] = target: B1; experiment: ITC; remark: listed apart in the source

| Binder | stoichiometry N (AUC) | Kd [1] | Kd [2] |
| --- | --- | --- | --- |
| B1 | 2 | – | – |
| B2 | – | 21 ± 1.1 µM | 6.8 ± 1.8 µM |
